Target: T1, hIL13RA1-EGFP (细胞表面hIL13RA1, HEK293细胞) (human, UniProt P78552 22-427)
T1 construct: also called 人IL13RA1; not shown: enhanced green fluorescent protein EGFP, UniProt C5MKY7
T1 sequence (looked up): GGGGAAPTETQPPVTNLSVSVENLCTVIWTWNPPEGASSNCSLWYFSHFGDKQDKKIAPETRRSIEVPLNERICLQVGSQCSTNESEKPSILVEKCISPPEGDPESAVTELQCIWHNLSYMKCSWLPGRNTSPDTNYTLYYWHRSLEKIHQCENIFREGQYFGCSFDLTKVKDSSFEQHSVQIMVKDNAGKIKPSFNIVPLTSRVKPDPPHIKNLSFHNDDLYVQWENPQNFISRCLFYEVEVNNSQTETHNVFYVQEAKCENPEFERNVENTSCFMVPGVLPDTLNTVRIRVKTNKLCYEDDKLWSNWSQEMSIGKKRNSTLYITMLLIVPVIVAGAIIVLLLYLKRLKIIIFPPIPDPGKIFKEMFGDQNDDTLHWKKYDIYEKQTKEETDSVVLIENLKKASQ
Test: FACS on hIL13RA1-EGFP HEK293 cells, 2 μg antibody, secondary antibody anti-hIg-PE

binding result: binds
B1: anti-hIL13RA1 scFv抗体 (Fc fusion)
scFv: QVQLQQSGPGLVKPSQTLLITCAISGDSVSSNSAAWNWIRQSPSGSLEWLGRTYYRSKWYSHYAVSVTGRMTINSDSSKNQFSLQLDSVTPEDMAIYYCAREEVAGRGSFDFWGQGTLVTVSSGILGSGGGGSGGGGSGGGGSDIQLTQSPSFLSASVGDRVTITCRASQSISKNLVWYQQKPGKAPKLLIYSASTLQSGVPSRFSGSGSGTDFTLTISSLQPEDCALYFCQQAHSFPVTFGQGTRLEIK
notes: also called anti-IL13RA1 35#; IL13RA1抗体; not shown: human IgG1-Fc domain, UniProt P01857 residues 104-330
